{"source": "patent US20250326823A1", "experiment_in_all_cases": "cell-based or functional assay", "key": {"[1]": {"molecular_target": "SARS-CoV-2 spike (S) protein, Omicron sublineage XBB.1.5 (SARS-CoV-2)"}, "[2]": {"molecular_target": "SARS-CoV-2 Omicron sublineage BF.7 spike (S) protein (SARS-CoV-2)"}, "[3]": {"molecular_target": "SARS-CoV-2 spike (S) protein, Omicron sublineage BA.2.75.2 (SARS-CoV-2)"}, "[4]": {"molecular_target": "SARS-CoV-2 Omicron sublineage CH.1.1 spike (S) protein (SARS-CoV-2)"}, "[5]": {"molecular_target": "SARS-CoV-2 spike (S) protein, Omicron sublineage BA.4/5 (SARS-CoV-2)"}, "[6]": {"molecular_target": "SARS-CoV-2 spike (S) protein, Omicron sublineage BQ.1.1 (SARS-CoV-2)"}, "[7]": {"molecular_target": "SARS-CoV-2 spike (S) protein, Omicron sublineage XBB (SARS-CoV-2)"}, "[8]": {"molecular_target": "SARS-CoV-2 B.1.351 spike (S) protein (SARS-CoV-2)"}, "[9]": {"molecular_target": "SARS-CoV-2 B.1.429 spike (S) protein (SARS-CoV-2)"}, "[10]": {"molecular_target": "SARS-CoV-2 EG.5.1 spike (S) protein (SARS-CoV-2)"}, "[11]": {"molecular_target": "SARS-CoV-2 XBB.1.5 spike (S) protein (SARS-CoV-2)"}, "[12]": {"molecular_target": "SARS-CoV-2 B.1.1.7 spike (S) protein (SARS-CoV-2)"}, "[13]": {"molecular_target": "SARS-CoV-2 JN.1 spike (S) protein (SARS-CoV-2)"}, "[14]": {"molecular_target": "SARS-CoV-2 XBB.2.3.2 spike (S) protein (SARS-CoV-2)"}, "[15]": {"molecular_target": "SARS-CoV-2 BA.2.86 spike (S) protein (SARS-CoV-2)"}, "[16]": {"molecular_target": "SARS-CoV-2 JF.1 spike (S) protein (SARS-CoV-2)"}, "[17]": {"molecular_target": "SARS-CoV-2 HK.3 spike (S) protein (SARS-CoV-2)"}, "[18]": {"molecular_target": "SARS-CoV-2 BA.1 spike (S) protein (SARS-CoV-2)"}, "[19]": {"molecular_target": "SARS-CoV-2 CH.1.1 spike (S) protein (SARS-CoV-2)"}, "[20]": {"molecular_target": "SARS-CoV-2 P.1 spike (S) protein (SARS-CoV-2)"}, "[21]": {"molecular_target": "SARS-CoV-2 B.1.621 spike (S) protein (SARS-CoV-2)"}, "[22]": {"molecular_target": "SARS-CoV-2 P.2 spike (S) protein (SARS-CoV-2)"}, "[23]": {"molecular_target": "SARS-CoV-2 B.1.617.1 spike (S) protein (SARS-CoV-2)"}, "[24]": {"molecular_target": "SARS-CoV-2 HV.1 spike (S) protein (SARS-CoV-2)"}, "[25]": {"molecular_target": "SARS-CoV-2 BA.4/5 spike (S) protein (SARS-CoV-2)"}, "[26]": {"molecular_target": "SARS-CoV-2 spike (S) protein, B.1.617.2 (SARS-CoV-2)"}, "[27]": {"molecular_target": "SARS-CoV-2 XBB.1.16.6 spike (S) protein (SARS-CoV-2)"}, "[28]": {"molecular_target": "SARS-CoV-2 spike (S) protein, B.1.351 (SARS-CoV-2)"}, "[29]": {"molecular_target": "SARS-CoV-2 B.1.427 spike (S) protein (SARS-CoV-2)"}, "[30]": {"molecular_target": "SARS-CoV-2 FL.1.5.1 spike (S) protein (SARS-CoV-2)"}, "[31]": {"molecular_target": "SARS-CoV-2 XBB spike (S) protein (SARS-CoV-2)"}, "[32]": {"molecular_target": "SARS-CoV-2 B.1.525 spike (S) protein (SARS-CoV-2)"}, "[33]": {"molecular_target": "SARS-CoV-2 B.1.617.2 spike (S) protein (SARS-CoV-2)"}, "[34]": {"molecular_target": "SARS-CoV-2 JD.1.1 spike (S) protein (SARS-CoV-2)"}, "[35]": {"molecular_target": "SARS-CoV-2 B.1.526 spike (S) protein (SARS-CoV-2)"}, "[36]": {"molecular_target": "SARS-CoV-2 KP.3.1.1 spike (S) protein (SARS-CoV-2)"}, "[37]": {"molecular_target": "SARS-CoV-2 LB.1 spike (S) protein (SARS-CoV-2)"}, "[38]": {"molecular_target": "SARS-CoV-2 KP.3 spike (S) protein (SARS-CoV-2)"}, "[39]": {"molecular_target": "SARS-CoV-2 KP.2 spike (S) protein (SARS-CoV-2)"}, "[40]": {"molecular_target": "SARS-CoV-2 KP.2.3 spike (S) protein (SARS-CoV-2)"}}, "data": [{"substance": "LY1404 (antibody)", "values": [{"measurement": "pseudotyped neutralization potency IC50", "setting": "[1]", "value": "> 67", "unit": "nM"}, {"measurement": "pseudotyped neutralization potency IC80", "setting": "[1]", "value": "> 67", "unit": "nM"}, {"measurement": "pseudotyped neutralization potency IC50", "setting": "[2]", "value": 0.02, "unit": "nM"}, {"measurement": "pseudotyped neutralization potency IC80", "setting": "[2]", "value": 0.18, "unit": "nM"}, {"measurement": "pseudotyped neutralization potency IC50", "setting": "[3]", "value": 0.04, "unit": "nM"}, {"measurement": "pseudotyped neutralization potency IC80", "setting": "[3]", "value": 0.14, "unit": "nM"}, {"measurement": "pseudotyped neutralization potency IC50", "setting": "[4]", "value": "> 67", "unit": "nM"}, {"measurement": "pseudotyped neutralization potency IC80", "setting": "[4]", "value": "> 67", "unit": "nM"}, {"measurement": "pseudotyped neutralization potency IC50", "setting": "[5]", "value": 0.01, "unit": "nM"}, {"measurement": "pseudotyped neutralization potency IC80", "setting": "[5]", "value": 0.02, "unit": "nM"}, {"measurement": "pseudotyped neutralization potency IC50", "setting": "[6]", "value": "> 67", "unit": "nM"}, {"measurement": "pseudotyped neutralization potency IC80", "setting": "[6]", "value": "> 67", "unit": "nM"}, {"measurement": "pseudotyped neutralization potency IC50", "setting": "[7]", "value": "> 67", "unit": "nM"}, {"measurement": "pseudotyped neutralization potency IC80", "setting": "[7]", "value": "> 67", "unit": "nM"}]}, {"substance": "AZD3152 (antibody)", "values": [{"measurement": "pseudovirus neutralization IC50", "setting": "[8]", "value": 0.024, "unit": "µg/mL"}, {"measurement": "pseudovirus neutralization IC50", "setting": "[9]", "value": 0.082, "unit": "µg/mL"}, {"measurement": "pseudotyped neutralization potency IC50", "setting": "[10]", "value": "> 66.7", "unit": "nM"}, {"measurement": "pseudotyped neutralization potency IC80", "setting": "[10]", "value": "> 66.7", "unit": "nM"}, {"measurement": "pseudovirus neutralization IC50", "setting": "[10]", "value": "> 10", "unit": "µg/mL"}, {"measurement": "pseudovirus neutralization IC50", "setting": "[11]", "value": 0.016, "unit": "µg/mL"}, {"measurement": "pseudovirus neutralization IC50", "setting": "[12]", "value": 0.093, "unit": "µg/mL"}, {"measurement": "pseudovirus neutralization IC50", "setting": "[13]", "value": 0.766, "unit": "µg/mL"}, {"measurement": "pseudotyped neutralization potency IC50", "setting": "[14]", "value": 0.0806, "unit": "nM"}, {"measurement": "pseudotyped neutralization potency IC80", "setting": "[14]", "value": 0.488, "unit": "nM"}, {"measurement": "pseudovirus neutralization IC50", "setting": "[14]", "value": 0.025, "unit": "µg/mL"}, {"measurement": "pseudotyped neutralization potency IC50", "setting": "[15]", "value": 1.8, "unit": "nM"}, {"measurement": "pseudotyped neutralization potency IC80", "setting": "[15]", "value": 5.4, "unit": "nM"}, {"measurement": "pseudovirus neutralization IC50", "setting": "[15]", "value": 0.053, "unit": "µg/mL"}, {"measurement": "pseudovirus neutralization IC50", "setting": "[16]", "value": "> 10", "unit": "µg/mL"}, {"measurement": "pseudovirus neutralization IC50", "setting": "[17]", "value": "> 10", "unit": "µg/mL"}, {"measurement": "pseudovirus neutralization IC50", "setting": "[18]", "value": 0.012, "unit": "µg/mL"}, {"measurement": "pseudovirus neutralization IC50", "setting": "[19]", "value": 0.045, "unit": "µg/mL"}, {"measurement": "pseudovirus neutralization IC50", "setting": "[20]", "value": 0.047, "unit": "µg/mL"}, {"measurement": "pseudovirus neutralization IC50", "setting": "[21]", "value": 0.04, "unit": "µg/mL"}, {"measurement": "pseudovirus neutralization IC50", "setting": "[22]", "value": 0.02, "unit": "µg/mL"}, {"measurement": "pseudovirus neutralization IC50", "setting": "[23]", "value": 0.041, "unit": "µg/mL"}, {"measurement": "pseudovirus neutralization IC50", "setting": "[24]", "value": "> 10", "unit": "µg/mL"}, {"measurement": "pseudovirus neutralization IC50", "setting": "[25]", "value": 0.03, "unit": "µg/mL"}, {"measurement": "IC50, pseudotyped neutralization potency", "setting": "[26]", "value": 0.281, "unit": "nM"}, {"measurement": "IC80, pseudotyped neutralization potency", "setting": "[26]", "value": 0.518, "unit": "nM"}, {"measurement": "pseudotyped neutralization potency IC50", "setting": "[27]", "value": "> 66.7", "unit": "nM"}, {"measurement": "pseudotyped neutralization potency IC80", "setting": "[27]", "value": "> 66.7", "unit": "nM"}, {"measurement": "pseudovirus neutralization IC50", "setting": "[27]", "value": "> 10", "unit": "µg/mL"}, {"measurement": "IC50, pseudotyped neutralization potency", "setting": "[28]", "value": 0.023, "unit": "nM"}, {"measurement": "IC80, pseudotyped neutralization potency", "setting": "[28]", "value": 0.041, "unit": "nM"}, {"measurement": "pseudovirus neutralization IC50", "setting": "[29]", "value": 0.09, "unit": "µg/mL"}, {"measurement": "pseudotyped neutralization potency IC50", "setting": "[30]", "value": "> 66.7", "unit": "nM"}, {"measurement": "pseudotyped neutralization potency IC80", "setting": "[30]", "value": "> 66.7", "unit": "nM"}, {"measurement": "pseudovirus neutralization IC50", "setting": "[30]", "value": "> 10", "unit": "µg/mL"}, {"measurement": "pseudovirus neutralization IC50", "setting": "[31]", "value": 0.011, "unit": "µg/mL"}, {"measurement": "pseudovirus neutralization IC50", "setting": "[32]", "value": 0.1, "unit": "µg/mL"}, {"measurement": "pseudovirus neutralization IC50", "setting": "[33]", "value": 0.09, "unit": "µg/mL"}, {"measurement": "pseudovirus neutralization IC50", "setting": "[34]", "value": "> 10", "unit": "µg/mL"}, {"measurement": "pseudovirus neutralization IC50", "setting": "[35]", "value": 0.049, "unit": "µg/mL"}]}, {"substance": "ADG20 (antibody)", "values": [{"measurement": "pseudovirus neutralization IC50", "setting": "[36]", "value": "> 67", "unit": "nM"}, {"measurement": "pseudovirus neutralization IC80", "setting": "[36]", "value": "> 67", "unit": "nM"}, {"measurement": "pseudovirus neutralization IC50", "setting": "[37]", "value": "> 67", "unit": "nM"}, {"measurement": "pseudovirus neutralization IC80", "setting": "[37]", "value": "> 67", "unit": "nM"}, {"measurement": "pseudovirus neutralization IC50", "setting": "[38]", "value": "> 67", "unit": "nM"}, {"measurement": "pseudovirus neutralization IC80", "setting": "[38]", "value": "> 67", "unit": "nM"}, {"measurement": "pseudovirus neutralization IC50", "setting": "[39]", "value": "> 67", "unit": "nM"}, {"measurement": "pseudovirus neutralization IC80", "setting": "[39]", "value": "> 67", "unit": "nM"}, {"measurement": "pseudovirus neutralization IC50", "setting": "[40]", "value": "> 67", "unit": "nM"}, {"measurement": "pseudovirus neutralization IC80", "setting": "[40]", "value": "> 67", "unit": "nM"}]}]}
